# Source: patent US20220025022A1 (published 2022)
# T1: CFA/I fimbrial protein (with adhesin subunit CfaE) on ETEC strain H10407 (enterotoxigenic Escherichia coli (ETEC), UniProt P25734 1-360)
# T1 sequence (looked up): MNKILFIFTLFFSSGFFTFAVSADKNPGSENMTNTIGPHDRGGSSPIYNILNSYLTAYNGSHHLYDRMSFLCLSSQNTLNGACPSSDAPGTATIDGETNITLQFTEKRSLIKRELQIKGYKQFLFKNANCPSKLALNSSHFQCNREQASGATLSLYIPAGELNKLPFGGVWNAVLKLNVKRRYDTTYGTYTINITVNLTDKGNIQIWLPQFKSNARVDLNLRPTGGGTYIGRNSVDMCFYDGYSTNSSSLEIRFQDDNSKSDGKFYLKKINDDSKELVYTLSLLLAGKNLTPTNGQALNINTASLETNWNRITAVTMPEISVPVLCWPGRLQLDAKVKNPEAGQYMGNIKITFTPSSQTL
# T2: MBP-CfaE-N (recombinant N-terminal adhesin domain of CfaE fused to an MBP tag) (enterotoxigenic Escherichia coli (ETEC), UniProt P25734 24-205, Biotinylated for SPR; FITC or Alexa dye labelled for flow cytometry; sites not stated.)
# T2 construct: Used plain (ELISA), biotinylated (SPR) and FITC/Alexa-labelled (flow cytometry); GenBank M55661 is printed for the nucleic acid; also called recombinant N-terminal truncated CfaE protein; N-terminal CfaE protein
# T2 sequence: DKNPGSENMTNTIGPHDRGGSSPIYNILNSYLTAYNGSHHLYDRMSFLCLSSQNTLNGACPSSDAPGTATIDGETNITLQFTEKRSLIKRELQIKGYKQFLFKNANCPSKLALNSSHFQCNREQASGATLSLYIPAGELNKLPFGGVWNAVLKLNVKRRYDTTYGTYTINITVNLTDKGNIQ
# T3: recombinant CS2 (N-terminal adhesin domain of CotD, MBP-tagged) (enterotoxigenic Escherichia coli (ETEC))
# T3 construct: also called CotD, CS2; colonization factor antigen CS2
# T3 chain: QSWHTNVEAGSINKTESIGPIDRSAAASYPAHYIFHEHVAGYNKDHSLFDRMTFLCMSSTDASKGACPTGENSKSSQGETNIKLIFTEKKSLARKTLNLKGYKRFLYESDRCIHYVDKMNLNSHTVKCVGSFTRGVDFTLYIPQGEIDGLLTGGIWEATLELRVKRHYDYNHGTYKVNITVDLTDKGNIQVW
# B1: VHH antibody 2R215 (monomeric) (VHH)
# VHH: QVQLQESGGGLVQAGGSLRLSCAASGNIFQDAEMGWYRQAPGKEREFVATIAYGGNTNYADSVKGRFTISRDNAKNTVYLQMNSLKPEDTAVYYCAVYTGVYYDRTTGGYVAFEYWGQGTQVTVSS
# B2: VHH antibody 1D7 (monomeric) (VHH)
# VHH: EVQLVESGGGLVQAGGSLTLSCAASERTFSYYVMAWFRQAPGKEREFVAGISMSGDSTKYADSVKGRFTISRDNAENTGYLQMNGLKPEDTAVYYCAADRDIRGNFRSWGRGTQVTVSS
# notes: also called clone 1D7
# B3: VHH antibody 2R23 (monomeric) (VHH)
# VHH: QVQLQESGGGLVQAGGSLRLSCAASGYIFWSYGYMGWYRQAPGKERELVATISRGGTTNYADSVKGRFTISRDNAKNTVYLQMNSLKPEDTAVYYCAAGRYAFGYFKYWGQGTQVTVSS
# notes: also called clone 2R23
# Legend:
# [1] = target: CS3 on ETEC strain #100483 (enterotoxigenic Escherichia coli (ETEC)); assay: cell-based or functional assay
# [2] = target: CS21 on ETEC strain #100171 (enterotoxigenic Escherichia coli (ETEC)); assay: cell-based or functional assay
# [3] = target: CS2 on ETEC strain #201546 (enterotoxigenic Escherichia coli (ETEC)); assay: cell-based or functional assay
# CS4 on ETEC strain = CS4 on ETEC strain (enterotoxigenic Escherichia coli (ETEC)); assay: cell-based or functional assay
# [4] = target: CS1 on ETEC strain #200145 (enterotoxigenic Escherichia coli (ETEC)); assay: cell-based or functional assay
# CS17 on ETEC strain = CS17 on ETEC strain (enterotoxigenic Escherichia coli (ETEC)); assay: cell-based or functional assay
# [5] = target: CS19 on ETEC strain #204648 (enterotoxigenic Escherichia coli (ETEC)); assay: cell-based or functional assay
# [6] = target: T1, CFA/I fimbrial protein (with adhesin …); assay: cell-based or functional assay
# [7] = target: CS5 on ETEC strain #204348 (enterotoxigenic Escherichia coli (ETEC)); assay: cell-based or functional assay
# [8] = target: CS6 on ETEC strain #100001 (enterotoxigenic Escherichia coli (ETEC)); assay: cell-based or functional assay
# [9] = target: CS14 on ETEC strain #400599 (enterotoxigenic Escherichia coli (ETEC)); assay: cell-based or functional assay
# [10] = target: T2, MBP-CfaE-N (recombinant N-terminal …); assay: SPR (Biacore T200), CfaE on CM5 chip, VHH injected, 25 C, 1:1 model
# Protocol: Surface plasmon resonance (SPR) technology was used to assess the binding properties of the VHH molecules (BIACORE® T200 instrument; GE Healthcare). Biotinylated CfaE protein was coupled to a CM5 sensor chip using standard amine coupling chemistry. Various concentrations of lead nanobodies ranging from 1 to 10 ug were injected over the chip surface at a flow rate of 30 l/min. An association step of 60 s was followed by a dissociation step of 180 s, and the final dissociation step was 600 s. Regeneration of the sensor chip surface was accomplished using 3 M MgCl₂. Experiments were performed at 25° C. Kinetic data were analyzed using BIACORE® T200 Evaluation (version 3.0) software and a 1:1 binding model. All chemicals for the BIACORE® experiment were purchased from GE Healthcare.
# [11] = target: T3, recombinant CS2 (N-terminal adhesin …); assay: ELISA on coated recombinant antigen
binder,measurement,setting,value
B1,MRHA IC100,[1],100 µg/mL
same,MRHA IC100,[2],25 µg/mL
same,MRHA IC100,[3],6.25 µg/mL
same,MRHA IC100,CS4 on ETEC strain,100 µg/mL
same,MRHA IC100,[4],200 µg/mL
same,MRHA IC100,CS17 on ETEC strain,6.25 µg/mL
same,MRHA IC100,[5],200 µg/mL
same,MRHA IC100,[6],25 µg/mL
same,MRHA IC100,[7],6.25 µg/mL
same,MRHA IC100,[8],25 µg/mL
same,MRHA IC100,[9],200 µg/mL
B2,MRHA IC100,[1],50 µg/mL
same,MRHA IC100,[2],25 µg/mL
same,MRHA IC100,[3],50 µg/mL
same,MRHA IC100,CS4 on ETEC strain,200 µg/mL
same,MRHA IC100,[4],50 µg/mL
same,MRHA IC100,CS17 on ETEC strain,6.25 µg/mL
same,MRHA IC100,[5],100 µg/mL
same,MRHA IC100,[6],100 µg/mL
same,MRHA IC100,[7],3.12 µg/mL
same,MRHA IC100,[8],12.5 µg/mL
same,MRHA IC100,[9],100 µg/mL
same,Kd,[10],17.7 nM
same,koff,[10],0.0311 s⁻¹
same,kon,[10],1.75e+06 M⁻¹ s⁻¹
same,binding result,[11],no binding
B3,MRHA IC100,[1],100 µg/mL
same,MRHA IC100,[2],25 µg/mL
same,MRHA IC100,[3],200 µg/mL
same,MRHA IC100,CS4 on ETEC strain,25 µg/mL
same,MRHA IC100,[4],200 µg/mL
same,MRHA IC100,CS17 on ETEC strain,6.25 µg/mL
same,MRHA IC100,[5],200 µg/mL
same,MRHA IC100,[6],50 µg/mL
same,MRHA IC100,[7],12.5 µg/mL
same,MRHA IC100,[8],12.5 µg/mL
same,MRHA IC100,[9],25 µg/mL
same,Kd,[10],9.06 nM
same,koff,[10],64.6 s⁻¹
same,kon,[10],7.13e+09 M⁻¹ s⁻¹
